Reference: patent US20090280128A1

Key:
[1] = molecular target: C-FLAG ILT7 (human ILT7 with FLAG tag at the C terminus, co-expressed with Myc-FcRγ) (human) (UniProt P59901); assay: flow cytometry on ILT7-CHO cells, control antibody, APC-labeled goat anti-mouse IgG
[2] = molecular target: C-FLAG ILT7 (human ILT7 with FLAG tag at the C terminus, co-expressed with Myc-FcRγ) (human) (UniProt P59901); assay: flow cytometry on ILT7-CHO cells, control antibody, APC goat anti-mouse IgG then FITC donkey anti-goat IgG

Chain of C-FLAG ILT7 (human ILT7 with FLAG tag at the C terminus, co-expressed with Myc-FcRγ) (human) (P59901 other isoform, or with tags, fused parts or gaps): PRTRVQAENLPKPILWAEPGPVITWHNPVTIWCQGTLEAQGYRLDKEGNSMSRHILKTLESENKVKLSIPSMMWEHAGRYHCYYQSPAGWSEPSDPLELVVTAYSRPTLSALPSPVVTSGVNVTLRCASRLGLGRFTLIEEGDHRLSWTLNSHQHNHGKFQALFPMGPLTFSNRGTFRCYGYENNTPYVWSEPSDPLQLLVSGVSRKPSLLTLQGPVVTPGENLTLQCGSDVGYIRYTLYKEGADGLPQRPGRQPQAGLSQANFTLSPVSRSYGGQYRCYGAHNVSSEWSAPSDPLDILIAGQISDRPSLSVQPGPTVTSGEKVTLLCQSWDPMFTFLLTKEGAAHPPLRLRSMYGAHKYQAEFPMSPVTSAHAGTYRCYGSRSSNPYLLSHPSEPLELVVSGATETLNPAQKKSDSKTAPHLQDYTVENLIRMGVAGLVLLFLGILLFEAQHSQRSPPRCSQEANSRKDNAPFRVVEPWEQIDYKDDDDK

APC mean fluorescence intensity, incubation at 4 °C [1]: 3
APC mean fluorescence intensity, incubation at 37 °C [1]: 3.64
FITC mean fluorescence intensity, incubation at 4 °C [2]: 3.7
FITC mean fluorescence intensity, incubation at 37 °C [2]: 4.2
Substance: Mouse IgG2a (antibody)
